How the values were obtained:
insulin receptor = target: T1, insulin receptor (Homo sapiens, UniProt P06213); test: Insulin radioreceptor assay (displacement of [125I] ligand from human placental membranes); format: binding; settings: relative to b,a (insulin) = 100; human placental membrane, 24 hours at 4° C., from EC50 values
T1 construct: 30-50 μg of human placental membrane protein was incubated; from tissue; host or cells: human placental membranes
Protocol: (§1) 67:194-197. Briefly, 30-50 μg of human placental membrane protein was incubated with approximately 10 femtomoles of [^125 I] ligand in a final volume of 500 μl of 100 mM HEPES, pH 7.8, 120 mM NaCl, 5 mM KCl, 1.2 mM MgSO4, 8 mM glucose and 0.25% BSA for 24 hours at 4° C. Membranes were collected on glass fiber filters pre-treated with 0.1% polyethyleneimine by using a cell harvester (Skatron, Lier, Norway). Binding data were analyzed by fitting displacement curves to a four parameter model employing Prefit/Allfit® software for the determination of EC50 values.

IGF-1 receptor = target: T2, IGF-1 receptor (Homo sapiens, UniProt P08069); test: IGF-1 radioreceptor assay (displacement of [125I] ligand from human placental membranes); format: binding; settings: relative to BCAD (IGF-1) = 100; human placental membrane, 24 hours at 4° C., from EC50 values
T2 construct: 30-50 μg of human placental membrane protein was incubated; from tissue; host or cells: human placental membranes
Protocol: as §1

Row | Substance | % INSULIN POTENCY (insulin receptor) | % IGF-1 POTENCY (IGF-1 receptor)
1 | IGF-1 [BCAD (IGF-1)] | 1.2% | –
2 | insulin [b,a (insulin)] | – | 0.37%
3 | proinsulin [bca (proinsulin)] | – | < 0.1%

Reference: patent publication US5622932A (Eli Lilly and Company, priority 1995, dated 1997)
